The numbers were not newly measured in paper PMC9741594, which cites them from elsewhere.

The target in the series is T1, Internalin A (on whole Listeria monocytogenes cells) (Listeria monocytogenes (strain not given in the material)) (UniProt P0DJM0).
T1 sequence: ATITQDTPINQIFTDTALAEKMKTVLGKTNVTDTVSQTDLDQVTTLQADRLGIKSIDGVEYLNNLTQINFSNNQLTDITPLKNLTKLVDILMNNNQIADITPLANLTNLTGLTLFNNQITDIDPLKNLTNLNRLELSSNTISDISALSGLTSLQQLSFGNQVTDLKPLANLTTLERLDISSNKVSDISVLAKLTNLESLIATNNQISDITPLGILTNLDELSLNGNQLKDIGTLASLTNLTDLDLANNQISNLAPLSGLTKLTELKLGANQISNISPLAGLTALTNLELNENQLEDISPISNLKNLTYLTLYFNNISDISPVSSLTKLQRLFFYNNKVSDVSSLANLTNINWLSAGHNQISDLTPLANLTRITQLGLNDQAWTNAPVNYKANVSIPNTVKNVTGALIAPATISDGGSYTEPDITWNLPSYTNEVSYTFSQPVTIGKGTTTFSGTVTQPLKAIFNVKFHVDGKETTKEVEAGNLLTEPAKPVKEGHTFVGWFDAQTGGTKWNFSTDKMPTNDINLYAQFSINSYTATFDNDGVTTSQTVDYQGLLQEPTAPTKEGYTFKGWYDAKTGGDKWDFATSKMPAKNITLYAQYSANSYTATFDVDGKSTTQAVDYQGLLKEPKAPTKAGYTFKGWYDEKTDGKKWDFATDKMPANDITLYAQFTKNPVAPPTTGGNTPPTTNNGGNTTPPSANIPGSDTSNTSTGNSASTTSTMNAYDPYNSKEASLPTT
The series is described as follows: not stated (cited). The following applies: printed as KD = 103 CFU/mL, read as 10^3; whole-cell units; 5' amine (immobilized by carbodiimide chemistry on ALG-thiomer/Pt); 5' thiol version also made; PBS, whole L. monocytogenes cells, 15 min capture at pH 7 (extended brush), EIS at pH 3 (collapsed), room temperature; also chicken broth.

“ATCCATGGGGCGGAGATGAGGGGGAGGAGGGCGGGTACCCGGTTGAT [A8 anti-Internalin A aptamer]”: the Kd was 1000 CFU/mL.
